Results published in PMC5127057.

Experiments:
[1] = target: Human Proteinase 3 (human) (UniProt P24158); test: progress curve kinetics of protease inhibition; pseudo-first-order conditions, Siropin 1 to tenfold over protease, 200 µM substrate, HNE (200 nM) or PR3 (300 nM), 37 °C, 405 nm for 20 min; k obs against Siropin concentration, slope k'app corrected for substrate competition (Km 114 µM HNE, 270 µM PR3)
[2] = target: Human Neutrophil Elastase (human) (UniProt P08246); test: as above
[3] = target: Human Proteinase 3 (human) (UniProt P24158); test: stoichiometry of inhibition by titration of residual protease activity; 200 nM HNE or 300 nM PR3 mixed with varied Siropin, molar ratios from 0 to 10, 5 min at 37 °C, then substrate, absorbance at 405 nm for 30 min; x-intercept of linear regression; 20 mM Tris-HCl, 500 mM NaCl, pH 8.0
[4] = target: Human Neutrophil Elastase (human) (UniProt P08246); test: as above

Sequence of UniProt P08246 (P08246 30-267): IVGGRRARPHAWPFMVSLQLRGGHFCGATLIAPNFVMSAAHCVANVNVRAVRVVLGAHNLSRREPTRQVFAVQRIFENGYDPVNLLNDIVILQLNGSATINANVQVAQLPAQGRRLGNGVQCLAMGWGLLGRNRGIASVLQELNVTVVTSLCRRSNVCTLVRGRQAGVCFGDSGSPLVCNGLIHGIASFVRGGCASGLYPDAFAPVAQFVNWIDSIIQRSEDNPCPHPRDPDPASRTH
Sequence of UniProt P24158 (P24158 28-248): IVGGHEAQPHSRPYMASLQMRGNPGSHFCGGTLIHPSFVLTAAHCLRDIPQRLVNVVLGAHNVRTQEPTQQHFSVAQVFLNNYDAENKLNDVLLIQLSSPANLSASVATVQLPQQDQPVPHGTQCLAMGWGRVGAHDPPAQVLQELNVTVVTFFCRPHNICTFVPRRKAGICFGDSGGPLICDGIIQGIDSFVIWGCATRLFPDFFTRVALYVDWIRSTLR

kon [1] [M⁻¹ s⁻¹] | kon [2] [M⁻¹ s⁻¹] | stoichiometry of inhibition (SI) [3] | stoichiometry of inhibition (SI) [4] | Substance
110000 | 77000 | 1.1 | 1.82 | Siropin 2 (natural protein)
260000 | 84000 | 1.1 | 1.76 | Siropin 1 (natural protein)
